molecular target: CD33 (Sino Biological, Cat #12238-H08H) (UniProt P20138 18-259); test: BLI, IgG captured on anti-human Fc sensor, 50 nM CD33, pH 7.4 vs pH 5.0
From the text: Multiple CD33-binding monoclonal antibodies have been described in the literature and can be used as a template for engineering pH-dependent binding (Hamann P R et al (2002) “Gemtuzumab ozogamicin, a potent and selective anti-CD33 antibody-calicheamicin conjugate for treatment of acute myeloid leukemia.” Bioconjug Chem 13(1):47-58). Gemtuzumab (Heavy chain SEQ ID NO: 1, Light chain SEQ ID NO: 2) was selected as a CD33-binding monoclonal antibody for pH engineering via histidine scanning. Briefly, CDRs in the heavy chain were identified using the methods described by Kabat et al (Kabat et al. (1992) Sequences of Proteins of Immunological Interest, DIANE publishing) and IMGT (Lefranc M P (1999) “The IMGT unique numbering for Immunoglobulins, T cell receptors and Ig-like domains” The Immunologist 7, 132-136), and for each CDR, residues falling under either or both Kabat and IMGT CDR definitions were called as CDR residues. To generate pH-dependent sequence variants, individual amino acid residues within the heavy chain CDRs were systematically substituted with a histidine, one at a time (MYT0482-MYT0517). In cases where the starting CDR residue was a histidine, it was mutated to an alanine. Antibody variants with only one histidine or alanine mutation in a heavy chain CDR were generated by co-transfection of Expi293 cells with a) one heavy chain sequence variant, and b) the corresponding starting ABPC light chain using methods known to the art. After allowing for four days of protein expression, cell culture supernatants were collected, quantified by SDS-PAGE analysis, (FIG. 1), and the pH dependence of the variant was evaluated using biolayer interferometry (BLI) on an Octet RED 384 instrument. Briefly, cell culture supernatants were normalized to an antibody expression level of 25 μg/mL, and captured on an anti-human Fc sensor (Forte Bio). A baseline was established using 1×PBST (50 mM Potassium Phosphate Buffer+150 mM NaCl+0.05% Tween 20) pH 7.4, and the sensor was associated with 50 nM of CD33 (Sino Biological, Cat #12238) in 1×PBST pH 7.4 for 120 sec to generate an association curve. In the dissociation phase, the antibody-antigen complex on the sensor was exposed to 1×PBST pH 7.4 for 300-600 sec. Baseline, association, and dissociation were repeated using 1×MES (100 mM MES Buffer+150 mM NaCl+0.05% Tween 20) pH 5.0 throughout in a separate condition.

Chain of CD33 (Sino Biological, Cat #12238-H08H) (P20138 18-259 limits assumed): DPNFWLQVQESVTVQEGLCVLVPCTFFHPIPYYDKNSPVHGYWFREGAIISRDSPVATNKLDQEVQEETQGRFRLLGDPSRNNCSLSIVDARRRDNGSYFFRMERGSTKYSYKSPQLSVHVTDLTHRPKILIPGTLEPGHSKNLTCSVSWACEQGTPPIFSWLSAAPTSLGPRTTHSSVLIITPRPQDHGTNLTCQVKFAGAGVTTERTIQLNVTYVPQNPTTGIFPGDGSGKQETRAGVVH

binding result | Binder
binds | MYT0489 (antibody, V domains shown, IgG; gemtuzumab VH variant #8 (N33H)) VH: EVQLVQSGAEVKKPGSSVKVSCKASGYTITDSHIHWVRQAPGQSLEWIGYIYPYNGGTDYNQKFKNRATLTVDNPTNTAYMELSSLRSEDTDFYYCVNGNPWLAYWGQGTLVTVSS VL: DIQLTQSPSTLSASVGDRVTITCRASESLDNYGIRFLTWFQQKPGKAPKLLMYAASNQGSGVPSRFSGSGSGTEFTLTISSLQPDDFATYYCQQTKEVPWSFGQGTKVEVK
binds | MYT0505 (antibody, V domains shown, IgG; gemtuzumab VH variant #24 (K63H)) VH: EVQLVQSGAEVKKPGSSVKVSCKASGYTITDSNIHWVRQAPGQSLEWIGYIYPYNGGTDYNQHFKNRATLTVDNPTNTAYMELSSLRSEDTDFYYCVNGNPWLAYWGQGTLVTVSS VL: DIQLTQSPSTLSASVGDRVTITCRASESLDNYGIRFLTWFQQKPGKAPKLLMYAASNQGSGVPSRFSGSGSGTEFTLTISSLQPDDFATYYCQQTKEVPWSFGQGTKVEVK
binds | MYT0500 (antibody, V domains shown, IgG; gemtuzumab VH variant #19 (T58H)) VH: EVQLVQSGAEVKKPGSSVKVSCKASGYTITDSNIHWVRQAPGQSLEWIGYIYPYNGGHDYNQKFKNRATLTVDNPTNTAYMELSSLRSEDTDFYYCVNGNPWLAYWGQGTLVTVSS VL: DIQLTQSPSTLSASVGDRVTITCRASESLDNYGIRFLTWFQQKPGKAPKLLMYAASNQGSGVPSRFSGSGSGTEFTLTISSLQPDDFATYYCQQTKEVPWSFGQGTKVEVK
binds | MYT0494 (antibody, V domains shown, IgG; gemtuzumab VH variant #13 (Y52H)) VH: EVQLVQSGAEVKKPGSSVKVSCKASGYTITDSNIHWVRQAPGQSLEWIGYIHPYNGGTDYNQKFKNRATLTVDNPTNTAYMELSSLRSEDTDFYYCVNGNPWLAYWGQGTLVTVSS VL: DIQLTQSPSTLSASVGDRVTITCRASESLDNYGIRFLTWFQQKPGKAPKLLMYAASNQGSGVPSRFSGSGSGTEFTLTISSLQPDDFATYYCQQTKEVPWSFGQGTKVEVK
binds | MYT0502 (antibody, V domains shown, IgG; gemtuzumab VH variant #21 (Y60H)) VH: EVQLVQSGAEVKKPGSSVKVSCKASGYTITDSNIHWVRQAPGQSLEWIGYIYPYNGGTDHNQKFKNRATLTVDNPTNTAYMELSSLRSEDTDFYYCVNGNPWLAYWGQGTLVTVSS VL: DIQLTQSPSTLSASVGDRVTITCRASESLDNYGIRFLTWFQQKPGKAPKLLMYAASNQGSGVPSRFSGSGSGTEFTLTISSLQPDDFATYYCQQTKEVPWSFGQGTKVEVK
binds | MYT0496 (antibody, V domains shown, IgG; gemtuzumab VH variant #15 (Y54H)) VH: EVQLVQSGAEVKKPGSSVKVSCKASGYTITDSNIHWVRQAPGQSLEWIGYIYPHNGGTDYNQKFKNRATLTVDNPTNTAYMELSSLRSEDTDFYYCVNGNPWLAYWGQGTLVTVSS VL: DIQLTQSPSTLSASVGDRVTITCRASESLDNYGIRFLTWFQQKPGKAPKLLMYAASNQGSGVPSRFSGSGSGTEFTLTISSLQPDDFATYYCQQTKEVPWSFGQGTKVEVK
binds | MYT0493 (antibody, V domains shown, IgG; gemtuzumab VH variant #12 (I51H)) VH: EVQLVQSGAEVKKPGSSVKVSCKASGYTITDSNIHWVRQAPGQSLEWIGYHYPYNGGTDYNQKFKNRATLTVDNPTNTAYMELSSLRSEDTDFYYCVNGNPWLAYWGQGTLVTVSS VL: DIQLTQSPSTLSASVGDRVTITCRASESLDNYGIRFLTWFQQKPGKAPKLLMYAASNQGSGVPSRFSGSGSGTEFTLTISSLQPDDFATYYCQQTKEVPWSFGQGTKVEVK
binds | MYT0504 (antibody, V domains shown, IgG; gemtuzumab VH variant #23 (Q62H)) VH: EVQLVQSGAEVKKPGSSVKVSCKASGYTITDSNIHWVRQAPGQSLEWIGYIYPYNGGTDYNHKFKNRATLTVDNPTNTAYMELSSLRSEDTDFYYCVNGNPWLAYWGQGTLVTVSS VL: DIQLTQSPSTLSASVGDRVTITCRASESLDNYGIRFLTWFQQKPGKAPKLLMYAASNQGSGVPSRFSGSGSGTEFTLTISSLQPDDFATYYCQQTKEVPWSFGQGTKVEVK
binds | MYT0507 (antibody, V domains shown, IgG; gemtuzumab VH variant #26 (K65H)) VH: EVQLVQSGAEVKKPGSSVKVSCKASGYTITDSNIHWVRQAPGQSLEWIGYIYPYNGGTDYNQKFHNRATLTVDNPTNTAYMELSSLRSEDTDFYYCVNGNPWLAYWGQGTLVTVSS VL: DIQLTQSPSTLSASVGDRVTITCRASESLDNYGIRFLTWFQQKPGKAPKLLMYAASNQGSGVPSRFSGSGSGTEFTLTISSLQPDDFATYYCQQTKEVPWSFGQGTKVEVK
binds | MYT0497 (antibody, V domains shown, IgG; gemtuzumab VH variant #16 (N55H)) VH: EVQLVQSGAEVKKPGSSVKVSCKASGYTITDSNIHWVRQAPGQSLEWIGYIYPYHGGTDYNQKFKNRATLTVDNPTNTAYMELSSLRSEDTDFYYCVNGNPWLAYWGQGTLVTVSS VL: DIQLTQSPSTLSASVGDRVTITCRASESLDNYGIRFLTWFQQKPGKAPKLLMYAASNQGSGVPSRFSGSGSGTEFTLTISSLQPDDFATYYCQQTKEVPWSFGQGTKVEVK
binds | MYT0508 (antibody, V domains shown, IgG; gemtuzumab VH variant #27 (N66H)) VH: EVQLVQSGAEVKKPGSSVKVSCKASGYTITDSNIHWVRQAPGQSLEWIGYIYPYNGGTDYNQKFKHRATLTVDNPTNTAYMELSSLRSEDTDFYYCVNGNPWLAYWGQGTLVTVSS VL: DIQLTQSPSTLSASVGDRVTITCRASESLDNYGIRFLTWFQQKPGKAPKLLMYAASNQGSGVPSRFSGSGSGTEFTLTISSLQPDDFATYYCQQTKEVPWSFGQGTKVEVK
binds | MYT0492 (antibody, V domains shown, IgG; gemtuzumab VH variant #11 (Y50H)) VH: EVQLVQSGAEVKKPGSSVKVSCKASGYTITDSNIHWVRQAPGQSLEWIGHIYPYNGGTDYNQKFKNRATLTVDNPTNTAYMELSSLRSEDTDFYYCVNGNPWLAYWGQGTLVTVSS VL: DIQLTQSPSTLSASVGDRVTITCRASESLDNYGIRFLTWFQQKPGKAPKLLMYAASNQGSGVPSRFSGSGSGTEFTLTISSLQPDDFATYYCQQTKEVPWSFGQGTKVEVK
binds | MYT0499 (antibody, V domains shown, IgG; gemtuzumab VH variant #18 (G57H)) VH: EVQLVQSGAEVKKPGSSVKVSCKASGYTITDSNIHWVRQAPGQSLEWIGYIYPYNGHTDYNQKFKNRATLTVDNPTNTAYMELSSLRSEDTDFYYCVNGNPWLAYWGQGTLVTVSS VL: DIQLTQSPSTLSASVGDRVTITCRASESLDNYGIRFLTWFQQKPGKAPKLLMYAASNQGSGVPSRFSGSGSGTEFTLTISSLQPDDFATYYCQQTKEVPWSFGQGTKVEVK
binds | MYT0501 (antibody, V domains shown, IgG; gemtuzumab VH variant #20 (D59H)) VH: EVQLVQSGAEVKKPGSSVKVSCKASGYTITDSNIHWVRQAPGQSLEWIGYIYPYNGGTHYNQKFKNRATLTVDNPTNTAYMELSSLRSEDTDFYYCVNGNPWLAYWGQGTLVTVSS VL: DIQLTQSPSTLSASVGDRVTITCRASESLDNYGIRFLTWFQQKPGKAPKLLMYAASNQGSGVPSRFSGSGSGTEFTLTISSLQPDDFATYYCQQTKEVPWSFGQGTKVEVK
binds | MYT0506 (antibody, V domains shown, IgG; gemtuzumab VH variant #25 (F64H)) VH: EVQLVQSGAEVKKPGSSVKVSCKASGYTITDSNIHWVRQAPGQSLEWIGYIYPYNGGTDYNQKHKNRATLTVDNPTNTAYMELSSLRSEDTDFYYCVNGNPWLAYWGQGTLVTVSS VL: DIQLTQSPSTLSASVGDRVTITCRASESLDNYGIRFLTWFQQKPGKAPKLLMYAASNQGSGVPSRFSGSGSGTEFTLTISSLQPDDFATYYCQQTKEVPWSFGQGTKVEVK
binds | MYT0503 (antibody, V domains shown, IgG; gemtuzumab VH variant #22 (N61H)) VH: EVQLVQSGAEVKKPGSSVKVSCKASGYTITDSNIHWVRQAPGQSLEWIGYIYPYNGGTDYHQKFKNRATLTVDNPTNTAYMELSSLRSEDTDFYYCVNGNPWLAYWGQGTLVTVSS VL: DIQLTQSPSTLSASVGDRVTITCRASESLDNYGIRFLTWFQQKPGKAPKLLMYAASNQGSGVPSRFSGSGSGTEFTLTISSLQPDDFATYYCQQTKEVPWSFGQGTKVEVK
binds | MYT0498 (antibody, V domains shown, IgG; gemtuzumab VH variant #17 (G56H)) VH: EVQLVQSGAEVKKPGSSVKVSCKASGYTITDSNIHWVRQAPGQSLEWIGYIYPYNHGTDYNQKFKNRATLTVDNPTNTAYMELSSLRSEDTDFYYCVNGNPWLAYWGQGTLVTVSS VL: DIQLTQSPSTLSASVGDRVTITCRASESLDNYGIRFLTWFQQKPGKAPKLLMYAASNQGSGVPSRFSGSGSGTEFTLTISSLQPDDFATYYCQQTKEVPWSFGQGTKVEVK
binds | MYT0490 (antibody, V domains shown, IgG; gemtuzumab VH variant #9 (I34H)) VH: EVQLVQSGAEVKKPGSSVKVSCKASGYTITDSNHHWVRQAPGQSLEWIGYIYPYNGGTDYNQKFKNRATLTVDNPTNTAYMELSSLRSEDTDFYYCVNGNPWLAYWGQGTLVTVSS VL: DIQLTQSPSTLSASVGDRVTITCRASESLDNYGIRFLTWFQQKPGKAPKLLMYAASNQGSGVPSRFSGSGSGTEFTLTISSLQPDDFATYYCQQTKEVPWSFGQGTKVEVK
